From PMC3934309

Molecular target: DsbC-MPK4 fusion (construct pT7-DsbC-MPK4) (E. coli | Leishmania major) (UniProt P0AEG6)
Experiment: SEC; analytical size exclusion chromatography of the IMAC purified fraction of the uncleaved DsbC-MPK4 fusion; peak at 8.4 ml; apparent molecular weight

For “DsbC-MPK4 fusion (construct pT7-DsbC-MPK4) (from UniProt P0AEG6 21-236; Q4QD66 1-363)”, the stoichiometry N was 10.
